Data on 1 protein can be found in publication PMC12225977 (PLOS Computational Biology, 2025).

This data set deals with the molecule itself. In words: native MS.

B1: Francisella tularensis dihydrolipoyl dehydrogenase (IPD) (enzyme)
chain: MSDIKTQVVVLGSGPGGYSAAFRAADLGLEVVLVERYAEIGGVCLNVGCIPSKAMLHIAKVINEARHLESLGIIEMGGLKINRENLLKYKDGVIGKLTGGLKGMAQMRKVKIVQGYGKFTSDKELAVEAADGKVTKIAFDNCIIAAGSSVIKLPFVPEDDRIIDSTGALEMKEIPETMLVVGGGIIGLEMAQVYSELGTKITVVEFADQLMNGVDKDLVKAYQKVNSRYDVRLKTAVTAMEAKEDGIYVTMEGDHPAKDERFDRVLMAIGRKPNGKLIDAEKAGVKVDERGFIPVDKQLRTNVPHIFAIGDIVGQPMLAHKAVPEGRTAAEVISGLNHSFDPLVIPSVAYTDPEVAWVGETETSAKAKGIKYEKGVFPWAASGRSLSIDRSEGMTKILFDENHKIIGASIVGTHAGELISEAAIAIEMGCDAEDIALTVHPHPTLSESLMMATEVYEGTATDLPPQKKKK
notes: also called Francisella IPD; MGH6-IPD
In the case of B1, the “stoichiometry N” value worked out at 2.
